From US20080194611A1, “Modulation of Cell Barrier Dysfunction” (priority 2005, published 2008)

Tests used:
[1] = Cecal instillation of purified PA-I with cytotoxins in mice
[2] = test system: cultured epithelial cells (MDCK, T-84, Caco-2bbe); test: Epithelial permeability / TEER after purified PA-I; assay type: cell-based; conditions: MDCK monolayers; purified protein

B1: PA-I: purified lectin/adhesin protein of P. aeruginosa (protein, UniProt Q05097 2-122, looked up)
PA-I galactophilic lectin: AWKGEVLANNEAGQVTSIIYNPGDVITIVAAGWASYGPTQKWGPQGDREHPDQGLICHDAFCGALVMKIGNSGTIPVNTGLFRWVAPNNVQGAITLIYNDVPGTYGNNSGSFSVNIGKDQS
mortality, compound alone ([1]; cecal injection): had no effect | mortality, combination with exotoxin A or elastase ([1]; cecal instillation, surgically stressed and sham-operated mice): induced significant mortality | TEER of epithelial cells [2]: decreased the TEER of epithelial cells to the same degree as P. aeruginosa
